Results: IntAct's records for PubMed 29039417

B1: Protein PTHB1 (Homo sapiens), Q3SYG4 (parent)
chain: MSLFKARDWWSTILGDKEEFDQGCLCLANVDNSGNGQDKIIVGSFMGYLRIFSPHPAKTGDGAQAEDLLLEVDLRDPVLQVEVGKFVSGTEMLHLAVLHSRKLCVYSVSGTLGNVEHGNQCQMKLMYEHNLQRTACNMTYGSFGGVKGRDLICIQSMDGMLMVFEQESYAFGRFLPGFLLPGPLAYSSRTDSFLTVSSCQQVESYKYQVLAFATDADKRQETEQQKLGSGKRLVVDWTLNIGEQALDICIVSFNQSASSVFVLGERNFFCLKDNGQIRFMKKLDWSPSCFLPYCSVSEGTINTLIGNHNNMLHIYQDVTLKWATQLPHIPVAVRVGCLHDLKGVIVTLSDDGHLQCSYLGTDPSLFQAPNVQSRELNYDELDVEMKELQKIIKDVNKSQGVWPMTEREDDLNVSVVVSPNFDSVSQATDVEVGTDLVPSVTVKVTLQNRVILQKAKLSVYVQPPLELTCDQFTFEFMTPDLTRTVSFSVYLKRSYTPSELEGNAVVSYSRPTDRNPDGIPRVIQCKFRLPLKLICLPGQPSKTASHKITIDTNKSPVSLLSLFPGFASQSDDDQVNVMGFHFLGGARITVLASKTSQRYRIQSEQFEDLWLITNELILRLQEYFEKQGVKDFACSFSGSIPLQEYFELIDHHFELRINGEKLEELLSERAVQFRAIQRRLLARFKDKTPAPLQHLDTLLDGTYKQVIALADAVEENQGNLFQSFTRLKSATHLVILLIALWQKLSADQVAILEAAFLPLQEDTQELGWEETVDAAISHLLKTCLSKSSKEQALNLNSQLNIPKDTSQLKKHITLLCDRLSKGGRLCLSTDAAAPQTMVMPGGCTTIPESDLEERSVEQDSTELFTNHRHLTAETPRPEVSPLQGVSE
partner: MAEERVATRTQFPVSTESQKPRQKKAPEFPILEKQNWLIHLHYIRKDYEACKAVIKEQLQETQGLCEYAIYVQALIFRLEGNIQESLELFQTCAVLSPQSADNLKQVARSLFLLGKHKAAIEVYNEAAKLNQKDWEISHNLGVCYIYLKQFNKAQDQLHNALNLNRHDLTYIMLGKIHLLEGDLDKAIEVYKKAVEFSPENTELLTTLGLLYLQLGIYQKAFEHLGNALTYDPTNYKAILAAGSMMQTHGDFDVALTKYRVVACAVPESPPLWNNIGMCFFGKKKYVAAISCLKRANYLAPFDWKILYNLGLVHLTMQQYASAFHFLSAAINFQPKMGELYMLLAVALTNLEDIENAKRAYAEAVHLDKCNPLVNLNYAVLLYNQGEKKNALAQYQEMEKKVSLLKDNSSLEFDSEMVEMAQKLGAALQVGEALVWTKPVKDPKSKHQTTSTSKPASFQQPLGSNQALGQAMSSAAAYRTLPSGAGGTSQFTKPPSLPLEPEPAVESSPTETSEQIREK

Variants of: B1
Conditions: with bbs4_human BBS4, Q96RK4

Row | Variant | effect of a mutation on the interaction
1 | L559F | disrupting interaction strength
2 | L560K | with no effect
3 | L560A | with no effect
4 | H581A | with no effect
5 | H581E | with no effect
6 | L583A | with no effect
7 | I548K | with no effect
8 | I548A | with no effect
9 | G584K | with no effect
10 | G584A | with no effect
11 | Q539K | with no effect
12 | K594E | with no effect
13 | F580E | with no effect
14 | Q597K | with no effect
15 | Q597R | disrupting interaction strength
16 | P540A | with no effect
17 | P540E | with no effect
18 | T589E | with no effect
19 | T589A | disrupting interaction strength
20 | R587K | with no effect
21 | R587A | with no effect

Row | Variant | effect of a mutation on the interaction
22 | R587E | with no effect
23 | S593K | with no effect
24 | S593A | with no effect
25 | N553A | with no effect
26 | N553E | with no effect
27 | T552A | with no effect
28 | T552K | with no effect
29 | T552E | with no effect
30 | F563E | with no effect
31 | F563S | disrupting interaction strength
32 | F582K | with no effect
33 | D571K | with no effect
34 | D571A | with no effect
35 | Q574K | with no effect
36 | Q574R | disrupting interaction strength
37 | Q574A | with no effect
38 | K554S | disrupting interaction strength
39 | A592E | with no effect
40 | A592K | with no effect
41 | H546K | with no effect
42 | H546E | with no effect

Row | Variant | effect of a mutation on the interaction
43 | D572K | with no effect
44 | D572E | with no effect
45 | D572A | with no effect
46 | T549E | with no effect
47 | T549A | with no effect
48 | G565E | with no effect
49 | I588E | with no effect
50 | I588K | with no effect
51 | R598E | with no effect
52 | A586K | with no effect
53 | A586E | with no effect
54 | K542A | with no effect
55 | S541K | with no effect
56 | S541A | with no effect
57 | L591K | with no effect
58 | L591A | with no effect
59 | L562E | with no effect
60 | F566K | with no effect
61 | F566A | with no effect
62 | N576E | with no effect
63 | N576A | with no effect

Row | Variant | effect of a mutation on the interaction
64 | S596A | with no effect
65 | S596E | with no effect
66 | S596K | with no effect
67 | Q569R | disrupting interaction strength
68 | Q569K | with no effect
69 | S555A | with no effect
70 | G579E | with no effect
71 | G579A | with no effect
72 | T595K | with no effect
73 | T595A | with no effect
74 | T595E | with no effect
75 | G585A | with no effect
76 | G585K | with no effect
77 | V590K | with no effect
78 | V557E | with no effect
79 | P564A | with no effect
80 | V577K | with no effect
81 | V577A | with no effect
82 | S568K | with no effect
83 | S570A | with no effect
84 | S570E | with no effect

The next lines start with the values.

Row | effect of a mutation on the interaction | Variant
85 | with no effect | L559K
86 | with no effect | L559E
87 | with no effect | L559A
88 | with no effect | L560E
89 | with no effect | H581K
90 | with no effect | L583K
91 | with no effect | L583E
92 | with no effect | I548E
93 | disrupting interaction strength | G584E
94 | with no effect | K594A
95 | with no effect | F580K
96 | with no effect | F580A
97 | with no effect | Q597A
98 | with no effect | Q597E
99 | with no effect | P540K
100 | disrupting interaction strength | T589I
101 | with no effect | T589K
102 | disrupting interaction strength | R587T
103 | with no effect | S545A
104 | with no effect | S545K
105 | with no effect | S545E
106 | with no effect | S593E
107 | with no effect | N553K
108 | with no effect | F563A
109 | with no effect | F563K

Row | effect of a mutation on the interaction | Variant
110 | with no effect | F582E
111 | with no effect | F582A
112 | with no effect | D571E
113 | with no effect | Q574E
114 | with no effect | K554E
115 | with no effect | K554A
116 | with no effect | M578E
117 | with no effect | M578A
118 | with no effect | M578K
119 | with no effect | A567K
120 | with no effect | A567E
121 | with no effect | H546A
122 | disrupting interaction strength | D572N
123 | with no effect | T549K
124 | disrupting interaction strength | G565R
125 | with no effect | G565K
126 | with no effect | G565A
127 | with no effect | I588A
128 | with no effect | R598K
129 | with no effect | R598A
130 | with no effect | S561K
131 | with no effect | S561E
132 | with no effect | S561A
133 | with no effect | D573E
134 | with no effect | D573A

Row | effect of a mutation on the interaction | Variant
135 | with no effect | D573K
136 | with no effect | K542E
137 | with no effect | S541E
138 | with no effect | P556E
139 | with no effect | P556K
140 | with no effect | P556A
141 | with no effect | L591E
142 | with no effect | L562K
143 | with no effect | L562A
144 | with no effect | K547A
145 | with no effect | K547E
146 | with no effect | F566E
147 | with no effect | N576K
148 | with no effect | Q569E
149 | with no effect | Q569A
150 | with no effect | S555K
151 | with no effect | S555E
152 | with no effect | G579K
153 | with no effect | A544E
154 | with no effect | A544K
155 | with no effect | G585E
156 | with no effect | V590A
157 | with no effect | V590E
158 | with no effect | V557K
159 | with no effect | V557A

Row | effect of a mutation on the interaction | Variant
160 | with no effect | P564K
161 | with no effect | P564E
162 | disrupting interaction strength | P564S
163 | with no effect | V577E
164 | with no effect | S558A
165 | with no effect | S558K
166 | with no effect | S558E
167 | with no effect | S568A
168 | with no effect | S568E
169 | with no effect | I550E
170 | with no effect | I550K
171 | with no effect | I550A
172 | with no effect | D551K
173 | with no effect | D551E
174 | with no effect | D551A
175 | with no effect | S570K
176 | with no effect | T543A
177 | with no effect | T543E
178 | with no effect | T543K
179 | with no effect | V575E
180 | with no effect | V575A
181 | with no effect | V575K
